Test results: patent publication US20200071378A1

Experiments:
[1] = biological target: murine VISTA expressed on EL4 cells (EL4-mVISTA) (murine) (UniProt Q9D659); experiment: flow cytometry on EL4-mVISTA cells
[2] = biological target: murine OX40 expressed on cells (CHOK1-mOX40) (murine) (UniProt P47741); experiment: flow cytometry on CHOK1-mOX40 cells
hOX40-His (human) = hOX40-His (human) (UniProt P43489); experiment: SPR (BioRad ProteOn XPR 360) per Example 5; FIG. 5 legend says biolayer interferometry (Octet); hOX40-His as ligand, analyte at 66.7 nM
Sequence of hOX40-His (human) (P43489 29-216 limits assumed): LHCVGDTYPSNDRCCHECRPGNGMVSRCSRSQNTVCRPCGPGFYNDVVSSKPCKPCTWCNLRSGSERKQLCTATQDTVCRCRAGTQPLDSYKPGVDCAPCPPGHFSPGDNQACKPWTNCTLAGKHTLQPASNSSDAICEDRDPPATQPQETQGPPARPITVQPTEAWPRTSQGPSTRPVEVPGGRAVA

Sequence of murine OX40 expressed on cells (CHOK1-mOX40) (murine) (P47741 20-272): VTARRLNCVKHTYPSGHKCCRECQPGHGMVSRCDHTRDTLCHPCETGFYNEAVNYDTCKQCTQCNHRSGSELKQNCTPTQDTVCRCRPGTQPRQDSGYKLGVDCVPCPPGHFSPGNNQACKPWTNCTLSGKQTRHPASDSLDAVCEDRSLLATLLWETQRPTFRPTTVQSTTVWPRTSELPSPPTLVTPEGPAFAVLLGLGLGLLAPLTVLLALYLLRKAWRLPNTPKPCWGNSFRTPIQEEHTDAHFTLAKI
Sequence of murine VISTA expressed on EL4 cells (EL4-mVISTA) (murine) (Q9D659 33-308): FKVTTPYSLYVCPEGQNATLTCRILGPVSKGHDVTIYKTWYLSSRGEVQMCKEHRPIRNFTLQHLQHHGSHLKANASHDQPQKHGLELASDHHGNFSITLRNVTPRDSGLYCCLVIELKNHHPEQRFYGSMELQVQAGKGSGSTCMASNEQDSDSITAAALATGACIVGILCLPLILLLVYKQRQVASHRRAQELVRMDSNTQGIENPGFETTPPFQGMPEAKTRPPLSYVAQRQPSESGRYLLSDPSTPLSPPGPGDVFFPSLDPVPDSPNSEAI

Row | EC50 [1] [nM] | EC50 [2] [nM] | Kd (hOX40-His (human)) [nM] | koff (hOX40-His (human)) [s⁻¹] | kon (hOX40-His (human)) [M⁻¹ s⁻¹] | Substance
1 | 56 | 16 |  |  |  | murine VSIG8-Fc-OX40L chimeric protein (from UniProt Q6P3A4 22-262; P43488 51-198) (Fc fusion)
2 |  |  | 0.152 | 5.03e-05 | 332000 | tavolixumab (an anti-human OX40 antibody)
